# Laboratory results published in the supplement of paper PMC10126150.
# ± gives the standard deviation of the averaged measurements.
# System: ATP
# Experiment: switch fluorescence ratio, 500 uM ATP over buffer (Cy3 cluster intensity, sum of 5 cycles each) (fold (ratio)); higher = stronger signal-on switching upon ATP binding; sequences stand for … in TCGTCGGCAGCGTCAGATGTGTATAAGAGACAGTTTTTTTTTTTTTTTTTTTTTTTTT…TC
# Settings: aptamer strand: ATP DNA aptamer (quencher-CACCTGGGGGAGTATTGCGGAGGAAGG + anchor), 100 nM annealed; ATP concentration: 500 uM
# In short: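 Between each of five buffer/ATP cycles, the flow-cell was stripped with NaOH and re-annealed. Each cycle imaged Cy3-labelled switching-strand clusters, annealed to 100 nM quencher-labelled ATP aptamer on a modified Illumina MiSeq flow-cell, first in selection buffer and then after 15 min with 500 uM ATP at 22 °C. The fluorescence ratio is summed target-cycle over summed buffer-cycle Cy3 intensity per cluster, averaged per switch-domain sequence, with clusters outside 100-1000 RFU excluded.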
# 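Also: ATP exposure 15 min at 22 °C before imaging.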
row,Sequence,switch fluorescence ratio
1,TCAGGAGTTT,1.04 ± 0.011
2,GATTGGGGAA,1.02 ± 0.013
3,ATCGGCTCTG,0.991 ± 0.043
4,TCAATGGGGC,0.979 ± 0.044
5,TTGAATGTTG,1.004 ± 0.0037
6,TTGCCGGGTT,1.17 ± 0.17
7,TATATCTCCG,1.12 ± 0.015
8,CGGCTGTGTG,0.974 ± 0.02
9,TGAAACGTAT,0.993 ± 0.023
10,AAGGTCGTCG,0.9834 ± 0.0076
11,TTTGGGTGCG,0.998 ± 0.04
12,TGTTGTTGAA,1.01 ± 0.042
13,ATAGGACATC,1.03 ± 0.04
14,GGTTACTTGG,0.9885 ± 0.0097
15,CTGAGGGAAA,0.988 ± 0.029
16,TTGGGGACGA,0.997 ± 0.032
17,CGTAGGGTCA,0.9871 ± 0.0082
18,AACGCAGGAG,1.48 ± 0.025
19,ACGATTTGGT,1 ± 0.013
20,TGGCTGCTGG,0.949 ± 0.013
21,CATGGTTTTC,0.962 ± 0.04
22,TTGAATGCCA,0.99 ± 0.028
23,CGTGGGAGAA,1.09 ± 0.084

row,Sequence,switch fluorescence ratio
1,TGTGTTGTGG,0.997 ± 0.028
2,CCGGGAGCAG,1.95 ± 0.61
3,CATTTGTTCT,1 ± 0.049
4,GGTTGGGGTT,0.942 ± 0.039
5,ACGTCTATGT,0.992 ± 0.0074
6,CGCGGTGGGC,1.005 ± 0.0026
7,CAATTTAGTC,0.983 ± 0.022
8,TTAAATCATT,1.014 ± 0.0099
9,ACTCTAGGTG,3.47 ± 0.091
10,GAGTATTGGT,0.9817 ± 0.0094
11,TAGTAGATTC,1.005 ± 0.0054
12,TCCTTGGTCG,1.04 ± 0.031
13,TTAGCGGTGT,1.07 ± 0.14
14,TTTTATTATC,0.9986 ± 0.0079
15,TGTCAGACGT,1 ± 0.011
16,CCTTTTCGTG,1.003 ± 0.0043
17,CACTTCTGAA,0.987 ± 0.017
18,GAATGGATGT,1 ± 0.012
19,AAGCGTTTTG,0.988 ± 0.0017
20,AAATAAATTG,0.999 ± 0.044
21,CATTGGCGTA,1.02 ± 0.023
22,TTCTTTTTCA,1.06 ± 0.067
23,CGGGGCATAT,1.13 ± 0.085

row,Sequence,switch fluorescence ratio
1,CGAATAAGCG,0.995 ± 0.023
2,TTTAGGCCGA,0.99 ± 0.043
3,GATTTAAGTG,1.018 ± 0.0065
4,TGCGTCGGCG,1 ± 0.013
5,TACAGTGGAG,1.011 ± 0.0044
6,CTTCGTCTCG,1.08 ± 0.072
7,TACGCACGTA,1.31 ± 0.17
8,TGGTTATTAT,0.991 ± 0.015
9,GGGAAGTTCA,1 ± 0.029
10,TAATAAATCT,0.9967 ± 0.0051
11,GAAAGTTAAA,1.038 ± 0.0091
12,AGGTTGCTCT,0.9947 ± 0.0098
13,TGGTTGCGTG,1 ± 0.015
14,TAGGTAGGGA,0.993 ± 0.018
15,CAATATGCAG,0.962 ± 0.012
16,TGGGAATGCC,0.994 ± 0.025
17,GAACTTTTTT,0.9935 ± 0.0083
18,TTGGGCCCAA,1 ± 0.041
19,CCTGGTTTTG,1.04 ± 0.028
20,TCTTGGCTTT,0.976 ± 0.019
21,GGGGTACCAC,1.31 ± 0.4
22,TGTAGGAAGT,0.992 ± 0.017
23,GGGGGCGGTA,1.02 ± 0.059

row,Sequence,switch fluorescence ratio
1,GACTGGGCAG,1.01 ± 0.011
2,TGTGGTTTGA,1.01 ± 0.043
3,TTGTTCAGGG,0.99 ± 0.013
4,GGAGGTGGGT,1.01 ± 0.03
5,GGTGTGGGGA,0.994 ± 0.025
6,TAGGATTCTC,0.979 ± 0.023
7,GGCGTTTTTG,1.02 ± 0.046
8,AGTGAAGGGG,1.1 ± 0.15
9,AATCGATTCC,1.04 ± 0.034
10,GGTGGGGGAT,1.01 ± 0.015
11,TTCGGGGGGG,1.01 ± 0.043
12,GGCTGCGCGG,1 ± 0.032
13,GGGGTCGGTG,0.969 ± 0.03
14,GGCCCCATGC,1.24 ± 0.034
15,TTGATGAAAA,1 ± 0.038
16,ATAGTGGTTT,1.02 ± 0.021
17,TTTATTCAAG,0.988 ± 0.021
18,TTCCCAAATT,1.19 ± 0.19
19,GGGGGACTGG,0.981 ± 0.019
20,CAATTTTCTT,1.02 ± 0.025
21,TTTGATTGCG,1 ± 0.011
22,TAGGGGAACC,0.9693 ± 0.0092
23,ATGGACCTGC,1.06 ± 0.064

row,Sequence,switch fluorescence ratio
1,TTTGCCGAGT,0.996 ± 0.044
2,CAGTCGTCGA,1.001 ± 0.0033
3,GAGGGCGCTG,0.973 ± 0.011
4,CAAGGCAAGG,1.07 ± 0.018
5,TATTTCGGGA,0.994 ± 0.026
6,CTACAAAAAA,1.02 ± 0.034
7,GTTGGTTAGG,0.959 ± 0.0071
8,GCTGTGGTT,0.9376 ± 0.00097
9,GGTTGAAGTA,0.989 ± 0.047
10,TAGTATTCTG,0.986 ± 0.021
11,GCTGGTATTG,1 ± 0.031
12,TGGTGCCGGT,1.01 ± 0.041
13,ATAGGGTACA,1.11 ± 0.052
14,TTTCAATAGT,1.09 ± 0.14
15,GGTACCTTTG,0.9729 ± 0.009
16,CTTTTTTGAT,0.9831 ± 0.0061
17,CGATGTGTAC,2.71 ± 0.17
18,GTTGGTATAG,1.01 ± 0.025
19,TTTTCATTCC,1.13 ± 0.15
20,TGGTTTGGTA,0.961 ± 0.011
21,TTACTTCATA,1.021 ± 0.0045
22,GCTCTCTTTT,0.9805 ± 0.0037
23,AATTTTTCTG,0.9869 ± 0.008

row,Sequence,switch fluorescence ratio
1,AACTTGGTGT,0.983 ± 0.016
2,GAGTGGGTGG,0.99 ± 0.037
3,ACCAGGCTTG,1.02 ± 0.016
4,TCAAATGGCG,0.923 ± 0.023
5,CACGCATCAG,1.137 ± 0.011
6,CGGATCTGGT,0.968 ± 0.024
7,TTGGTATGAG,0.997 ± 0.013
8,CATAATGAAG,1.01 ± 0.014
9,ACGAGAAGTT,1.1 ± 0.073
10,GGTTGTGTTA,0.998 ± 0.013
11,TTATGTATGT,0.996 ± 0.017
12,TTAAGTAAGG,1.03 ± 0.016
13,TGAAGGCCTT,0.9953 ± 0.0011
14,TGGGGGTTAA,0.981 ± 0.025
15,AGGGAACGAC,1.03 ± 0.05
16,TGGTGGGTAT,0.999 ± 0.024
17,GATAGGTG,1.21 ± 0.1
18,TACAACTAGA,1 ± 0.024
19,TCATGATGTA,0.9848 ± 0.0061
20,TAATCCCTTT,1.01 ± 0.04
21,GTGGAAGTGG,1.02 ± 0.034
22,CGATTTTGGG,0.9844 ± 0.0047
23,TTGTTTGTTC,1.01 ± 0.034

row,Sequence,switch fluorescence ratio
1,CTAACTAAGG,1.015 ± 0.0095
2,ATTAACTGCT,0.9932 ± 0.0058
3,GAGTGGGCTC,0.9879 ± 0.0045
4,GGATGACTGG,0.9993 ± 0.0061
5,ATCACGGGGG,1.02 ± 0.019
6,CTGGTACGGA,1.0245 ± 0.00032
7,GGGTGGGCGT,1.05 ± 0.043
8,TTAGGTGCGT,1.08 ± 0.028
9,CGTATGCAAG,0.967 ± 0.041
10,TCAGTAAGTT,0.995 ± 0.021
11,AAGCTAGTTT,1 ± 0.013
12,GGGAAGTCAC,1.121 ± 0.0039
13,GGTAGTATTT,0.996 ± 0.028
14,AGGTGCTCAT,1.02 ± 0.036
15,TGCTATAAAG,0.988 ± 0.043
16,ATAGTAGTGT,0.998 ± 0.015
17,GCTGGTTAAA,0.97834 ± 0.00053
18,CGGGATTGGT,1.01 ± 0.13
19,TATAGATTTT,1.003 ± 0.0078
